B1: Proto-oncogene tyrosine-protein kinase LCK (Mus musculus), P06240 (parent)
chain: MGCVCSSNPEDDWMENIDVCENCHYPIVPLDSKISLPIRNGSEVRDPLVTYEGSLPPASPLQDNLVIALHSYEPSHDGDLGFEKGEQLRILEQSGEWWKAQSLTTGQEGFIPFNFVAKANSLEPEPWFFKNLSRKDAERQLLAPGNTHGSFLIRESESTAGSFSLSVRDFDQNQGEVVKHYKIRNLDNGGFYISPRITFPGLHDLVRHYTNASDGLCTKLSRPCQTQKPQKPWWEDEWEVPRETLKLVERLGAGQFGEVWMGYYNGHTKVAVKSLKQGSMSPDAFLAEANLMKQLQHPRLVRLYAVVTQEPIYIITEYMENGSLVDFLKTPSGIKLNVNKLLDMAAQIAEGMAFIEEQNYIHRDLRAANILVSDTLSCKIADFGLARLIEDNEYTAREGAKFPIKWTAPEAINYGTFTIKSDVWSFGILLTEIVTHGRIPYPGMTNPEVIQNLERGYRMVRPDNCPEELYHLMMLCWKERPEDRPTFDYLRSVLDDFFTATEGQYQPQP

Variants of: B1
Details: with cbl_human CBL

effect of a mutation on the interaction | Variant
decreasing interaction | W97A

Source: IntAct's records for PubMed 11741956
